Experimental data reported in the supplement of paper PMC10065799, “High-throughput profiling of sequence recognition by tyrosine kinases and SH2 domains using bacterial peptide display” (eLife, 2023).

What was measured:
AncSZ = test: phosphorylation enrichment, bacterial display (enrichment ratio); higher = better substrate or ligand; peptides without Tyr show the background
EPHB1 = EPHB1 (UniProt P54762); test: as above
EPHB2 = EPHB2 (UniProt P29323); test: as above
FGFR1 = FGFR1 (UniProt P11362); test: as above
FGFR1, sequence (P11362 whole entry, looked up): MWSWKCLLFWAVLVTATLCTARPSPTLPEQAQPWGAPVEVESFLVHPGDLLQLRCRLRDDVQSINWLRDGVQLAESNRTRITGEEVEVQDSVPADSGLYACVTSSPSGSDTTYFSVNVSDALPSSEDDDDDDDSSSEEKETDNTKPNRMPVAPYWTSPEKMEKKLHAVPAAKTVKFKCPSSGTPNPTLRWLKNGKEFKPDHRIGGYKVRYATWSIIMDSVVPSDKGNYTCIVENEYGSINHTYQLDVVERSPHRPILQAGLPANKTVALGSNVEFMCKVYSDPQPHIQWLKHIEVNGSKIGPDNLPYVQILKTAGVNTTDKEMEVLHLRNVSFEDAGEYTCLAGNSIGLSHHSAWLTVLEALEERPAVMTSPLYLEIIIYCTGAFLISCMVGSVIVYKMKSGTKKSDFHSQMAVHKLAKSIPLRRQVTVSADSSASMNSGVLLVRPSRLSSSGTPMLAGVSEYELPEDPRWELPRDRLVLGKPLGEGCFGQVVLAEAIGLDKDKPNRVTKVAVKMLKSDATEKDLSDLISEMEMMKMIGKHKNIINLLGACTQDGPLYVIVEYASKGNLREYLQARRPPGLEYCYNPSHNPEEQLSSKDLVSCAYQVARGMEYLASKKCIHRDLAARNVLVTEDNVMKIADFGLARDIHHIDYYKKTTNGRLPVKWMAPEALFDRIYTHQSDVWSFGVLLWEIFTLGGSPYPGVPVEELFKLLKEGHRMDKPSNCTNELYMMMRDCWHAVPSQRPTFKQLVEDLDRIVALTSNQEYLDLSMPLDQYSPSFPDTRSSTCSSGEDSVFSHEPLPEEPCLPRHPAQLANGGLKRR

FGFR3 = FGFR3 (UniProt P22607); test: as above
Fer (mouse) = test: as above
Fes = Fes (UniProt P07332); test: as above
Fes, sequence (P07332 whole entry, looked up): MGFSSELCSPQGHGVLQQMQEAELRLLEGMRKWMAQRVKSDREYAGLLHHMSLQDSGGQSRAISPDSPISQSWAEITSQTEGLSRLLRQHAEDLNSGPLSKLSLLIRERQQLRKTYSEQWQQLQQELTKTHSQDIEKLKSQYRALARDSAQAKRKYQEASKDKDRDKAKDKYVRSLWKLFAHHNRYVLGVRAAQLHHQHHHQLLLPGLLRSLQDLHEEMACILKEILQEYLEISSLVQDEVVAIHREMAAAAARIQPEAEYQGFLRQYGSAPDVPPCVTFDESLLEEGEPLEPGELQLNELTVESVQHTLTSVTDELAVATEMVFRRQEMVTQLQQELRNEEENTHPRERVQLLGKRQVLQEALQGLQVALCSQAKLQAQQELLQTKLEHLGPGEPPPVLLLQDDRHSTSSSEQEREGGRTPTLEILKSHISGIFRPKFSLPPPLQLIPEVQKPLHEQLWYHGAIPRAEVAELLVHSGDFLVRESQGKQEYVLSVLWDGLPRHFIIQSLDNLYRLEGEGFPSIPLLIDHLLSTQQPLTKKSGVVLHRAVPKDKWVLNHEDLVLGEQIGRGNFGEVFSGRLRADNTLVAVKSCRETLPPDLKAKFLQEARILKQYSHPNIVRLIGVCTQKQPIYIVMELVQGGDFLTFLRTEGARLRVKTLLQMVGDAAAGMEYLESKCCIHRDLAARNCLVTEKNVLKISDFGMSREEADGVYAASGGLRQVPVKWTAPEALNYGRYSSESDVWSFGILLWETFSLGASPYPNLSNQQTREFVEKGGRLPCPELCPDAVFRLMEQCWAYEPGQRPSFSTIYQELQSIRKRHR

Fyn = Fyn (UniProt P06241); test: as above
Fyn, sequence (P06241 whole entry, looked up): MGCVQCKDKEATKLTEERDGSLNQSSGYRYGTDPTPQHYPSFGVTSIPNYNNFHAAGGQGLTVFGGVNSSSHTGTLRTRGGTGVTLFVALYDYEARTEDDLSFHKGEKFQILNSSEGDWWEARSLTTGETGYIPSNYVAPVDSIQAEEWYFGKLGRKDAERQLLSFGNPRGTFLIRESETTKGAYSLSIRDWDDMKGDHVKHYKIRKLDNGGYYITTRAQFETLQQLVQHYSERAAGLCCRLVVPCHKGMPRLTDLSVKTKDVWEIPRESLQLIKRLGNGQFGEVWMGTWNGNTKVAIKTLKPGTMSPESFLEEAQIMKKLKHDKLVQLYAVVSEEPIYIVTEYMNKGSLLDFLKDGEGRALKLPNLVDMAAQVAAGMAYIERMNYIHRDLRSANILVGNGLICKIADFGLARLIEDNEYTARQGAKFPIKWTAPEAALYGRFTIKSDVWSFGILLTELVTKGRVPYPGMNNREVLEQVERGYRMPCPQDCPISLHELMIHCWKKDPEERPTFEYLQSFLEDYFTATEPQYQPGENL

Hck = Hck (UniProt P08631); test: as above
Hck, sequence (P08631 whole entry, looked up): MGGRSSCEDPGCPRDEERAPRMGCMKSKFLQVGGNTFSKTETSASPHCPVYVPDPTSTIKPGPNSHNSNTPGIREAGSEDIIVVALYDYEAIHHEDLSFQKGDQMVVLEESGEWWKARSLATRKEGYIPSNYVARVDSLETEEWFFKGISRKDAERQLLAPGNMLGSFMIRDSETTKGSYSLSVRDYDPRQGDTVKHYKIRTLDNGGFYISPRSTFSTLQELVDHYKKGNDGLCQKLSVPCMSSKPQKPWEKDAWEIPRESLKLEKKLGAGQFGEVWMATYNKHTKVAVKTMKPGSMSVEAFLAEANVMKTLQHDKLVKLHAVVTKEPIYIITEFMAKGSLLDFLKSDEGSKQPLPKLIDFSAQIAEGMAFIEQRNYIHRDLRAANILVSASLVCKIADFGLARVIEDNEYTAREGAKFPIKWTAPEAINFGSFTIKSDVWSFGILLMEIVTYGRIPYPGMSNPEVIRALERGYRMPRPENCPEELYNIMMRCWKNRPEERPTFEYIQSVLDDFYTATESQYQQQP

Jak2 = Jak2 (UniProt O60674); test: as above
MERTK = MERTK (UniProt Q12866); test: as above
MERTK, sequence (Q12866 whole entry, looked up): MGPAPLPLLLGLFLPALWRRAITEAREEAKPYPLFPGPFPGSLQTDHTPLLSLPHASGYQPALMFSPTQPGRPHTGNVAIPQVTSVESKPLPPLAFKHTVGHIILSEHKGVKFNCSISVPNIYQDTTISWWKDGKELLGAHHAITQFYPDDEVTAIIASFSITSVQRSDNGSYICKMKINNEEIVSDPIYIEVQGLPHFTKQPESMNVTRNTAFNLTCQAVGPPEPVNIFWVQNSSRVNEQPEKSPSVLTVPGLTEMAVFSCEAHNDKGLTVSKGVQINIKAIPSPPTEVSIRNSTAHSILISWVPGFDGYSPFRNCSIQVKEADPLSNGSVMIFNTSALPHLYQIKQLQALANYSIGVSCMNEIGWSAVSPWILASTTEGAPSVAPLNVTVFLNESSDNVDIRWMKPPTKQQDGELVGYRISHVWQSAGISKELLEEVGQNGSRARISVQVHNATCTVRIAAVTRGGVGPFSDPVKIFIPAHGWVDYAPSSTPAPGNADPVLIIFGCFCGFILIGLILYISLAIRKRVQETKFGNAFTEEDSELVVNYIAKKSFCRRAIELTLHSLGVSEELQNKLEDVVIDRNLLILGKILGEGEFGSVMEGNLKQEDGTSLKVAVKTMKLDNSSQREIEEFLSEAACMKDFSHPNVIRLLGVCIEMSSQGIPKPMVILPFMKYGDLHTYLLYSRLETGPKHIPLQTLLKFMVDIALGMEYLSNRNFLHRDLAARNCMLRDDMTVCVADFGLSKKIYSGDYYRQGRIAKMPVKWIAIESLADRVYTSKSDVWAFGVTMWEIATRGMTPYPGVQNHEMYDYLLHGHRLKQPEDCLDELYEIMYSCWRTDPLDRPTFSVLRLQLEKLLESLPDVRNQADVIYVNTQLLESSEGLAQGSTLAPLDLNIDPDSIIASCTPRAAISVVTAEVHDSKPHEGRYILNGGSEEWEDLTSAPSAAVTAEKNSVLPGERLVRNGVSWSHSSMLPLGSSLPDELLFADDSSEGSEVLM

c-Abl (mouse) = test: as above
c-Src = test: as above
Grb2 SH2 = Grb2 SH2 (UniProt P62993); test: SH2 binding enrichment of the phosphorylated peptide, bacterial display (enrichment ratio); higher = better substrate or ligand; peptides without Tyr show the background
SHP2-C SH2 = test: as above
c-Src SH2 = test: as above
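Wherever SH2 binding enrichment of the phosphorylated peptide, bacterial display is given: peptide library displayed on the E. coli surface as eCPX fusions, selected cells deep-sequenced, score is each peptide's frequency after selection divided by its frequency in the input.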
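Wherever phosphorylation enrichment, bacterial display is given: 11-residue human phosphosite peptides and single-mutation variants displayed on the E. coli surface, counted by deep sequencing, each peptide's frequency after selection divided by its frequency in the unselected input library; frequency after pTyr selection over input frequency; kinase dosed for 20-30% of maximal phosphorylation in three min.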

EPHB1, sequence (P54762 whole entry, looked up): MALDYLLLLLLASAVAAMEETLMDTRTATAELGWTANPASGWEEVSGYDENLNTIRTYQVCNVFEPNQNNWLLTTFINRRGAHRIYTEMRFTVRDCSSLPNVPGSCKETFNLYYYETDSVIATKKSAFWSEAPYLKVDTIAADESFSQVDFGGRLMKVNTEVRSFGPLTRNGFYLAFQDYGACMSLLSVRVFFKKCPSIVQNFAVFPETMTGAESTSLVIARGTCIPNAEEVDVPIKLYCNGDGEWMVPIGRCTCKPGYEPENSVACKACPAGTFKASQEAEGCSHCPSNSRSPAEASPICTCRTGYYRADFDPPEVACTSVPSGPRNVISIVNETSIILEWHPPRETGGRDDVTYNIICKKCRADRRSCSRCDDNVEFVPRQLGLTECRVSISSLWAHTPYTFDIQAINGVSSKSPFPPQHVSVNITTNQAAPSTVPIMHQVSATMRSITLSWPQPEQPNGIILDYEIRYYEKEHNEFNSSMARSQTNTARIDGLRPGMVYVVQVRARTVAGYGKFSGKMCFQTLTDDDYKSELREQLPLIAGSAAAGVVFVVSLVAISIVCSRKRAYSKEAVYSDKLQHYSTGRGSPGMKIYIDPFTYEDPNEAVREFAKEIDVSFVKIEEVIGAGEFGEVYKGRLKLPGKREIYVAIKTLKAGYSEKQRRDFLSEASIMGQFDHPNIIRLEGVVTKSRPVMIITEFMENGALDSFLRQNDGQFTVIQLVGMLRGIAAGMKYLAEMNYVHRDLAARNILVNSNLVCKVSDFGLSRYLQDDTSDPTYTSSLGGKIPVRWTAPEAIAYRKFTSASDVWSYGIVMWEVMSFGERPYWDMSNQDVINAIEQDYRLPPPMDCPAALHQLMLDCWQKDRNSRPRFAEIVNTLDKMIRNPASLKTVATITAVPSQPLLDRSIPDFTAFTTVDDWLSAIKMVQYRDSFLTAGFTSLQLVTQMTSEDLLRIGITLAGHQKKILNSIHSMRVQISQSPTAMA

Row | Sequence | SH2 binding enrichment (Grb2 SH2) | SH2 binding enrichment (SHP2-C SH2) | SH2 binding enrichment (c-Src SH2) | phosphorylation enrichment (AncSZ) | phosphorylation enrichment (EPHB1) | phosphorylation enrichment (EPHB2) | phosphorylation enrichment (FGFR1) | phosphorylation enrichment (FGFR3) | phosphorylation enrichment (Fer (mouse)) | phosphorylation enrichment (Fes) | phosphorylation enrichment (Fyn) | phosphorylation enrichment (Hck) | phosphorylation enrichment (Jak2) | phosphorylation enrichment (MERTK) | phosphorylation enrichment (c-Abl (mouse)) | phosphorylation enrichment (c-Src)
1 | VAFLYYKSIGP [ADGRL4_Y302_V300L] | 0.771 | 0.633 | 0.341 | 1.21 | 0.78 | 0.776 | 0.531 | 1.09 | 0.589 | 1.54 | 0.45 | 0.625 | 1.44 | 0.389 | 1.43 | 0.392
2 | EQMLEYMGQLQ [CFAP45_Y289_E291G] | 0.794 | 0.553 | 0.42 | 0.913 | 0.436 | 0.493 | 0.447 | 0.595 | 0.427 | 1.01 | 0.542 | 0.507 | 0.873 | 0.448 | 0.762 | 0.505
3 | AAYNRYDQERF [CDC73_Y293] | 0.737 | 0.585 | 0.497 | 0.681 | 0.401 | 0.463 | 0.521 | 0.538 | 0.433 | 0.752 | 0.457 | 0.447 | 0.646 | 0.518 | 0.512 | 0.468
4 | LSAPWYLNRIS [HEXA_Y421] | 1.19 | 1.19 | 0.697 | 0.791 | 0.562 | 0.511 | 0.429 | 0.533 | 0.359 | 0.797 | 0.371 | 0.46 | 0.699 | 0.331 | 0.447 | 0.362
5 | FESPRYLQVRI [FANCA_Y488_H492R] | 0.763 | 0.964 | 0.742 | 0.946 | 0.537 | 0.477 | 0.62 | 0.572 | 0.589 | 0.985 | 0.513 | 0.579 | 0.756 | 0.437 | 0.68 | 0.437
6 | LKDEDYLKDTV [HAUS3_Y582_I586T] | 0.708 | 0.501 | 0.478 | 3.63 | 1.7 | 1.67 | 1.88 | 1.63 | 0.928 | 3.04 | 1.99 | 1.67 | 2.34 | 1.04 | 1.37 | 0.838
7 | HGAKVYIDPFT [EPHB4_Y590_T587A] | 0.712 | 0.668 | 0.592 | 0.986 | 1.08 | 0.975 | 1.46 | 0.912 | 0.715 | 1.04 | 0.792 | 0.792 | 0.761 | 0.535 | 0.831 | 0.713
8 | ATPSRYMTFLH [DYNC2H1_Y2872] | 0.757 | 8.55 | 1.32 | 0.667 | 0.505 | 0.403 | 0.329 | 0.574 | 0.457 | 0.748 | 0.435 | 0.487 | 0.656 | 0.396 | 0.527 | 0.482
9 | VMAVAYRLAEQ [HK1_Y461_T457M] | 1.26 | 1.03 | 0.685 | 0.972 | 0.619 | 0.496 | 0.463 | 0.676 | 0.491 | 1.06 | 0.431 | 0.445 | 1.04 | 0.46 | 0.708 | 0.463
10 | HNMPIYEGFAL [ACTA1_Y168_V165M_YF] | 0.607 | 0.847 | 0.431 | 1.44 | 24.3 | 32.9 | 0.704 | 0.786 | 26.7 | 5.34 | 21.5 | 15.6 | 0.859 | 14.7 | 29.2 | 13.2
11 | RLLVVYPWTQG [HBG2_Y36_R41G] | 2.61 | 1.82 | 1.66 | 0.894 | 0.542 | 0.378 | 0.603 | 0.58 | 0.289 | 0.932 | 0.499 | 0.416 | 0.987 | 0.27 | 0.593 | 0.305
12 | RGRSTYYWPSP [GAGE12J_Y9_R13S] | 0.647 | 0.472 | 0.373 | 2.12 | 0.994 | 0.871 | 1.49 | 1.01 | 0.699 | 0.885 | 0.938 | 0.949 | 0.656 | 6.32 | 0.647 | 1.23
13 | FIRKDYEACKA [BBS4_Y48_YF] | 1.07 | 0.731 | 0.792 | 0.642 | 0.651 | 0.516 | 0.502 | 0.592 | 0.49 | 0.865 | 0.445 | 0.396 | 0.741 | 0.334 | 0.726 | 0.479
14 | TLLERYGMTEI [ACSF3_Y355] | 0.907 | 0.866 | 0.462 | 0.621 | 0.415 | 0.516 | 0.404 | 0.564 | 0.42 | 0.863 | 0.387 | 0.392 | 0.565 | 0.342 | 0.516 | 0.418
15 | NVADHYGVFKP [ATP6V0D2_Y271_YF] | 1.06 | 0.96 | 0.717 | 0.557 | 0.3 | 0.441 | 0.443 | 0.408 | 0.455 | 0.691 | 4.49 | 3.18 | 0.404 | 0.435 | 0.538 | 4.14

Now from value to sequence, other results behind:

Row | SH2 binding enrichment (Grb2 SH2) | SH2 binding enrichment (SHP2-C SH2) | SH2 binding enrichment (c-Src SH2) | Sequence | phosphorylation enrichment (AncSZ) | phosphorylation enrichment (EPHB1) | phosphorylation enrichment (EPHB2) | phosphorylation enrichment (FGFR1) | phosphorylation enrichment (FGFR3) | phosphorylation enrichment (Fer (mouse)) | phosphorylation enrichment (Fes) | phosphorylation enrichment (Fyn) | phosphorylation enrichment (Hck) | phosphorylation enrichment (Jak2) | phosphorylation enrichment (MERTK) | phosphorylation enrichment (c-Abl (mouse)) | phosphorylation enrichment (c-Src)
16 | 0.951 | 0.787 | 0.555 | RSHLSYDVTPE [IQGAP3_Y1098_P1097S] | 0.733 | 0.767 | 0.717 | 0.473 | 0.924 | 0.453 | 1.14 | 0.509 | 0.432 | 1.05 | 0.594 | 0.982 | 0.561
17 | 0.692 | 0.687 | 0.419 | ISDNACQFMLT [MYH7_Y162_Y162C_YF] | 0.946 | 0.712 | 0.615 | 0.588 | 0.877 | 0.51 | 1.21 | 0.597 | 0.606 | 1.04 | 0.448 | 0.696 | 0.448
18 | 0.842 | 0.688 | 0.535 | LEEFQYIGESQ [MSH2_Y856] | 2.09 | 1.03 | 1.19 | 0.733 | 1.11 | 0.918 | 1.62 | 0.722 | 0.558 | 2.43 | 0.61 | 1.25 | 0.882
19 | 0.85 | 0.902 | 0.57 | NDEDIYKGLPD [VAV3_Y141] | 1.23 | 0.727 | 0.674 | 0.584 | 0.794 | 0.534 | 1.21 | 0.879 | 0.878 | 0.947 | 0.444 | 0.802 | 0.837
20 | 0.756 | 0.636 | 0.42 | GLDGSYLLRDS [SH2D1A_Y29] | 0.574 | 0.371 | 0.387 | 0.426 | 0.464 | 0.39 | 0.622 | 0.413 | 0.563 | 0.578 | 0.413 | 0.471 | 0.397
21 | 0.951 | 0.739 | 0.542 | EDKFMYSEFPQ [PTEN_Y240_F241S] | 1.51 | 0.771 | 1.05 | 1.49 | 1.45 | 0.734 | 1.21 | 1.25 | 2.07 | 1.14 | 2.02 | 1.03 | 2.91
22 | 1.02 | 0.854 | 0.583 | QKTGDYFDLFG [PTPN11_Y62_N58K_YF] | 2.17 | 11 | 6.35 | 20.1 | 17 | 0.434 | 1.04 | 0.971 | 0.442 | 7.57 | 1.04 | 0.815 | 0.639
23 | 0.698 | 2.08 | 11.7 | HNQDGYSYLSR [LDLR_Y845_P848L] | 0.478 | 0.527 | 0.889 | 0.879 | 0.658 | 0.522 | 0.681 | 0.624 | 0.793 | 0.679 | 0.719 | 0.551 | 0.554
24 | 0.721 | 0.586 | 0.415 | FTGDIYSNSNL [LZTR1_Y141_YF] | 0.957 | 0.903 | 0.738 | 0.667 | 0.502 | 2.87 | 0.849 | 6.36 | 7.46 | 0.756 | 1.1 | 0.831 | 5.54
25 | 0.899 | 1.04 | 1.38 | QKTGDYYDLYG [PTPN11_Y62_N58K] | 2.31 | 11 | 6.98 | 20.8 | 16.2 | 0.586 | 1.33 | 3.77 | 4.6 | 2.24 | 3.24 | 1.21 | 3.77
26 | 0.725 | 0.64 | 0.567 | VHSGTYQVTVR [MYBPC3_Y1043] | 0.593 | 0.521 | 0.489 | 0.404 | 0.391 | 0.435 | 0.586 | 0.448 | 0.738 | 0.48 | 0.409 | 0.442 | 0.561
27 | 0.759 | 0.794 | 0.522 | EIASHYRHLLR [ZBTB46_Y14_T11A] | 0.597 | 0.357 | 0.42 | 0.416 | 0.528 | 0.516 | 0.585 | 0.428 | 0.573 | 0.703 | 0.421 | 0.415 | 0.421
28 | 0.888 | 0.958 | 0.52 | VRFMEYETQVK [TARDBP_Y155_T153M] | 0.943 | 1.25 | 1.14 | 0.394 | 0.694 | 0.418 | 0.981 | 0.384 | 0.459 | 0.979 | 0.373 | 0.73 | 0.481
29 | 1.76 | 1.65 | 1.24 | AERKLYRNVML [ZNF569_Y33_Q29E] | 0.45 | 0.365 | 0.408 | 0.367 | 0.407 | 0.359 | 0.519 | 0.337 | 0.319 | 0.653 | 0.383 | 0.453 | 0.312
